Source: patent US20240009235A1 (published 2024)

Target: T1, Bob1 (gene POU2AF1) peptide on HLA-B*35:01 (human)
T1 peptide: APAPTAVVL
Experiment: multimer staining

binding result: no recognition
B1: TCR 1C5.6 (TCR, V domains shown)
Valpha: AQSVTQLDSQVPVFEEAPVELRCNYSSSVSVYLFWYVQYPNQGLQLLLKYLSGSTLVESINGFEAEFNKSQTSFHLRKPSVHISDTAEYFCAVKVSNAGGTSYGKLTFGQGTILTVHP
Vbeta: DGGITQSPKYLFRKEGQNVTLSCEQNLNHDAMYWYRQDPGQGLRLIYYSQIVNDFQKGDIAEGYSVSREKKESFPLTVTSAQKNPTAFYLCASSIAQGADTQYFGPGTRLTVL
